The record followed here is US20010009766A1.

Test [1] has as its target rat GALR3 receptor (rat). The test can be described thus: displacement of porcine 125I-galanin, rat GalR3 transiently expressed in COS-7 membranes.
Test [2] addresses rat GALR3 receptor (rat). The test can be described thus: displacement of porcine 125I-galanin, membranes of transiently transfected COS-7 cells.
For the next test, the target named is rat GALR2 receptor (rat) (UniProt O08726). The test is described as above.
The next test addresses rat GALR1 receptor (rat). The test is described as above.
Test [3] has as its target human GALR3 receptor (human) (UniProt O60755). The test can be described thus: displacement of porcine 125I-galanin, membranes of stable LM(tk-) line L-hGalR3-228.
Test [4] concerns the target rat GALR3 receptor (rat). Description: displacement of porcine 125I-galanin, membranes of stable cell line 293-rGalR3-105.
Test [5] addresses human GALR3 receptor (human) (UniProt O60755). The test can be described thus: cell-based or functional assay.
In test [6] the target is rat GALR3 receptor (rat). Description: apparent binding affinity, rat GalR3 in COS-7 (repeats Table 4).

Chain of human GALR3 receptor (human) (O60755 whole entry, form in doubt): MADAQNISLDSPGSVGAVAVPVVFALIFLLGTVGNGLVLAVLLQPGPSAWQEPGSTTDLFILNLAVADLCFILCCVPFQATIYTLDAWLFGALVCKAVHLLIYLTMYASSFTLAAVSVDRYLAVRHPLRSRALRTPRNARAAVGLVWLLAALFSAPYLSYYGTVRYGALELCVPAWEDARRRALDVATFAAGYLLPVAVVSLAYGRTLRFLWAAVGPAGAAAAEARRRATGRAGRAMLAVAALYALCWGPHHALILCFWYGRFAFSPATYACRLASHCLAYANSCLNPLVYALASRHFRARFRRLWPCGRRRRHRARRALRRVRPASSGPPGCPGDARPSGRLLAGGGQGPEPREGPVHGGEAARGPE
Chain of rat GALR2 receptor (rat) (O08726 whole entry): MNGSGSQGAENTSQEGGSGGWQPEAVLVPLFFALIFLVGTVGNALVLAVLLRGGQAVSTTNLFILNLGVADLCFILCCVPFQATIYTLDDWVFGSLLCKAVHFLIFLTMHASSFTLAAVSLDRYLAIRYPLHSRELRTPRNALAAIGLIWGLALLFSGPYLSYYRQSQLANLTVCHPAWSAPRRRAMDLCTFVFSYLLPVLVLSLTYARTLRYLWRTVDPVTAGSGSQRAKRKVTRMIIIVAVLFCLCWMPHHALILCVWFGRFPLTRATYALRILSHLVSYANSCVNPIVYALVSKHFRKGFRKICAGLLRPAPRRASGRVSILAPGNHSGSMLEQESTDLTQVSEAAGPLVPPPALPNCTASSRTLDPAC

As to galantide (peptide), the Ki stood at 9 nM with rat GALR3 receptor (rat) [1], 18 nM with rat GALR3 receptor (rat) [2], 2 nM with rat GALR2 receptor (rat) and 9.5 nM with rat GALR1 receptor (rat).

Take M35 (peptide): the Ki is 3.7 nM with rat GALR3 receptor (rat) [1]; 7.8 nM in test [3]; 3.2 nM with rat GALR3 receptor (rat) [4]; 6.7 nM in the test with rat GALR3 receptor (rat) [2]; 0.57 nM with rat GALR2 receptor (rat); 0.33 nM with rat GALR1 receptor (rat).

Turning to C7 (peptide), in test [5], the Oocyte EC50 (stimulation of GIRKs) is 343 nM. Further, the Ki with rat GALR3 receptor (rat) [1] was found to be 23 nM; with rat GALR3 receptor (rat) [4], 9.6 nM; in the test with rat GALR3 receptor (rat) [6], 23 nM; with rat GALR3 receptor (rat) [2] it was 68 nM; with rat GALR1 receptor (rat), 16 nM.

On to galanin -7 to +29 (peptide), for which the Oocyte EC50 (stimulation of GIRKs) in test [5] turned out to be 1910 nM.

D-Trp2-galanin 1-16 (peptide) registered a Ki with rat GALR3 receptor (rat) [2] above 1000 nM.

D-Trp2-galanin 1-29 (peptide) came in with a Ki with rat GALR3 receptor (rat) [2] above 1000 nM.
